Experimental data from patent publication US20220056139A1 (UNIVERSITY OF SOUTHERN CALIFORNIA, published 2022).

B1: huLym-1-B-DAP CAR (Experiment 3, with 261 tag) (receptor)
chain: EVQLVESGGGLVQPGRSLRLTCTASGFSLTSYGVHWVRQPPGKGLEWLAVIWSDGSTTYNSALKSRLTISKDNSKSQVYLQMNSLRAEDTAVYYCARHYGSTLAFASWGQGTLVTVSSGGGGSGGGGSGGGGSDIQMTQSPSSLSASVGDRVTITCRASVNIYSYLAWYQQKPGKAPNLLIYNAKILAEGVPSRFSGSGSGTDFTLTISSLQPEDFASYYCQHHYGTFTFGQGTKVEIKAVPPQQWALSTTTPAPRPPTPAPTIASQPLSLRPEACRPAAGGAVHTRGLDFACDIYIWAPLAGTCGVLLLSLVITLYCLCARPRRSPAQDGKVYINMPGRGYFLGRLVPRGRGAAEAATRKQRITETESPYQELQGQRSDVYSDLNTQRPYYK
B2: huLym-1-B-BB3z CAR (receptor)
chain: EVQLVESGGGLVQPGRSLRLTCTASGFSLTSYGVHWVRQPPGKGLEWLAVIWSDGSTTYNSALKSRLTISKDNSKSQVYLQMNSLRAEDTAVYYCARHYGSTLAFASWGQGTLVTVSSGGGGSGGGGSGGGGSDIQMTQSPSSLSASVGDRVTITCRASVNIYSYLAWYQQKPGKAPNLLIYNAKILAEGVPSRFSGSGSGTDFTLTISSLQPEDFASYYCQHHYGTFTFGQGTKVEIKAVPPQQWALSTTTPAPRPPTPAPTIASQPLSLRPEACRPAAGGAVHTRGLDFACDIYIWAPLAGTCGVLLLSLVITLYCKRGRKKLLYIFKQPFMRPVQTTQEEDGCSCRFPEEEEGGCELRVKFSRSADAPAYKQGQNQLYNELNLGRREEYDVLDKRRGRDPEMGGKPRRKNPQEGLYNELQKDKMAEAYSEIGMKGERRRGKGHDGLYQGLSTATKDTYDALHMQALPP

Molecular target: HLA-DR (human)
Assay: cell-based or functional assay

Binder	killing of Raji cells at 2:1 effector to target ratio, overnight co-culture	fold expansion of CAR T cells from days 7-14
B1	~80%	
B2		< 4 fold
